“And” between values parts separate entries of the source, which are not always exact repeats. Equal entries are not always repeated. Where two headings read alike, the source gives them in different places. Square brackets hold non-standard residues; d marks the D form. Ends that are not written are not given here. Peptide text beside a SMILES is read from it. * marks the point of attachment. ξ: configuration not given here. Biotin = O=C1N[C@H]2[C@H](CS[C@H]2CCCCC(=O)*)N1; ξGly(nC16H33) = CCCCCCCCCCCCCCCCC(N)C(=O)O; Palmitoyl = CCCCCCCCCCCCCCCC(=O)*; NHhexadecyl = CCCCCCCCCCCCCCCCN*; Myristoyl = CCCCCCCCCCCCCC(=O)*
Molecular target: CXCR4 (Homo sapiens, UniProt P61073)
Sequence (P61073 whole entry): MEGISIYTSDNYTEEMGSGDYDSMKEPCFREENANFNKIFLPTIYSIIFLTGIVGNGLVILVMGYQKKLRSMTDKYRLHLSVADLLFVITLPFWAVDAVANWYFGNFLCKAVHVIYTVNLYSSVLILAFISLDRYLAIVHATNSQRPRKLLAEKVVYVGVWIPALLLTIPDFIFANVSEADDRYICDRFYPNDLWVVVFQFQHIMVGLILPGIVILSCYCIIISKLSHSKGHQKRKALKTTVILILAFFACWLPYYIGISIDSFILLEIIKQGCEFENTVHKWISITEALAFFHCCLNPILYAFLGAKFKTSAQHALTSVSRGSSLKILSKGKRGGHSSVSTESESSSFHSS
Assay: Chemotaxis assay, effect on SDF1-a (CXCL12) induced migration of CCRF-CEM cells
Format: cell-based
Set-up: a human T-cell ALL line that endogenously expresses CXCR4; endogenous in cells; host or cells: CCRF-CEM (human T-cell ALL line)
Conditions: for AUC (% of vehicle) / Max (% of vehicle) / Peak Test Compound / activity at 1 µM / Peak Ratio: CEM cells; for activity at 1 µM: CCRF-CEM; for Peak Ratio: peak test compound/peak control
[1] = Table 20, i3 loop, conc 0.01 uM
[2] = Table 20, i3 loop, conc 0.03 uM
[3] = Table 20, i3 loop, conc 1.0 uM, read-out: AUC (% of vehicle)
[4] = Table 20, i3 loop, conc 1.0 uM, read-out: Max (% of vehicle)
[5] = Table 18, i1 loop, drug conc 1.0 uM, read-out: AUC (% of)
[6] = Table 18, i1 loop, drug conc 1.0 uM, read-out: Max (% of)

Compound: Pal-SKLSHSKGHQKRKALKTTVIL-amide (Palmitoyl-SKLSHSKGHQKRKALKTTVIL-NH2; SMILES CCCCCCCCCCCCCCCC(=O)N[C@@H](CO)C(=O)N[C@@H](CCCCN)C(=O)N[C@@H](CC(C)C)C(=O)N[C@@H](CO)C(=O)N[C@@H](Cc1c[nH]cn1)C(=O)N[C@@H](CO)C(=O)N[C@@H](CCCCN)C(=O)NCC(=O)N[C@@H](Cc1c[nH]cn1)C(=O)N[C@@H](CCC(N)=O)C(=O)N[C@@H](CCCCN)C(=O)N[C@@H](CCCNC(=N)N)C(=O)N[C@@H](CCCCN)C(=O)N[C@@H](C)C(=O)N[C@@H](CC(C)C)C(=O)N[C@@H](CCCCN)C(=O)N[C@H](C(=O)N[C@H](C(=O)N[C@H](C(=O)N[C@H](C(=O)N[C@@H](CC(C)C)C(N)=O)[C@@H](C)CC)C(C)C)[C@@H](C)O)[C@@H](C)O) [Compound 88]
- positive allosteric modulation of the SDF1-a dependent chemotactic response (RFU) (30 nM of compound): induces a positive SDF1-a mediated chemotactic response
- AUC (% of vehicle) [1]: 172.33 % of vehicle
- Max (% of vehicle) [1]: 156.08 % of vehicle
- Peak Test Compound [1]: 0.03 nM
- AUC (% of vehicle) [2]: 226.59 % of vehicle
- Max (% of vehicle) [2]: 202.16 % of vehicle
- Peak Test Compound [2]: 0.03 nM
- AUC (% of vehicle) (Table 20, i3 loop, conc 0.1 uM): 183.19 % of vehicle
- Max (% of vehicle) (Table 20, i3 loop, conc 0.1 uM): 157.79 % of vehicle
- Peak Test Compound (Table 20, i3 loop, conc 0.1 uM): 0.03 nM
- AUC (% of vehicle) (Table 20, i3 loop, conc 0.3 uM): 131.2 % of vehicle
- Max (% of vehicle) (Table 20, i3 loop, conc 0.3 uM): 113.68 % of vehicle
- AUC (% of vehicle) (Table 20, i3 loop, conc 1.0 uM): 143.61 % of vehicle
- Max (% of vehicle) (Table 20, i3 loop, conc 1.0 uM): 131.59 % of vehicle
- Peak Test Compound (Table 20, i3 loop, conc 1.0 uM): 0.8 nM
- AUC (% of vehicle) (Table 20, i3 loop, conc 3.0 uM): 116.49 % of vehicle
- Max (% of vehicle) (Table 20, i3 loop, conc 3.0 uM): 114.49 % of vehicle
- Peak Test Compound (Table 20, i3 loop, conc 3.0 uM): 0.8 nM

Compound: CCCCCCCCCCCCCCCCC(NC(=O)CCCC[C@@H]1SC[C@@H]2NC(=O)N[C@@H]21)C(=O)N[C@@H](Cc1cnc[nH]1)C(=O)N[C@@H](CO)C(=O)N[C@@H](CCCCN)C(=O)NCC(=O)N[C@@H](Cc1cnc[nH]1)C(=O)N[C@@H](CCC(N)=O)C(=O)N[C@@H](CCCCN)C(=O)N[C@@H](CCCNC(=N)N)C(=O)N[C@@H](CCCCN)C(=O)N[C@@H](C)C(=O)N[C@@H](CC(C)C)C(=O)N[C@@H](CCCCN)C(N)=O (stereo partly drawn) [Compound 87] (Biotin-[ξGly(nC16H33)]HSKGHQKRKALK-NH2)
- activity at 1 µM [3]: 52.6%
- activity at 1 µM [4]: 76.1%
- Peak Test Compound (Table 20, i3 loop, conc 1.0 uM): 0.2 nM
- Peak Ratio (Table 20, i3 loop, conc 1.0 uM): 0.2

Compound: 101: CXCR4 i3 loop compound (SKLSHSKGHQKRKALK) [Compound 101]
- AUC (% of vehicle) (Table 20, i3 loop, conc 1.0 uM): 75.55 % of vehicle
- Max (% of vehicle) (Table 20, i3 loop, conc 1.0 uM): 74.92 % of vehicle

Compound: 116: CXCR4 i4 domain compound (GAKFKTSAQHALTSVR) [Compound 116]
- AUC (% of vehicle) (Table 21, i4 loop, conc 1.0 uM): 65.28 % of Vehicle
- Max (% of vehicle) (Table 21, i4 loop, conc 1.0 uM): 80.48 % of Vehicle

Compound: 104: CXCR4 i3 loop compound (IIISKLSHSKGHQKRKALKT) [Compound 104]
- AUC (% of vehicle) (Table 20, i3 loop, conc 1.0 uM): 36.4 % of vehicle
- Max (% of vehicle) (Table 20, i3 loop, conc 1.0 uM): 56.39 % of vehicle

Compound: 115: CXCR4 i4 domain compound (GAKFKTSAQHALTSVSRGSSLK) [Compound 115]
- AUC (% of vehicle) (Table 21, i4 loop, conc 1.0 uM): 77.47 % of Vehicle
- Max (% of vehicle) (Table 21, i4 loop, conc 1.0 uM): 92.11 % of Vehicle

Compound: CCCCCCCCCCCCCCCC(=O)N[C@@H](CCCCN)C(=O)N[C@@H](CC(C)C)C(=O)N[C@@H](CO)C(=O)N[C@@H](Cc1cnc[nH]1)C(=O)N[C@@H](CO)C(=O)N[C@@H](CCCCN)C(=O)NCC(=O)N[C@@H](Cc1cnc[nH]1)C(=O)N[C@@H](CCC(N)=O)C(=O)N[C@@H](CCCCN)C(=O)N[C@@H](CCCNC(=N)N)C(=O)N[C@@H](CCCCN)C(=O)N[C@@H](C)C(=O)N[C@@H](CC(C)C)C(N)=O [Compound 93] (Palmitoyl-KLSHSKGHQKRKAL-NH2)
- activity at 1 µM [3]: 15.9%
- activity at 1 µM [4]: 54.8%
- Peak Test Compound (Table 20, i3 loop, conc 1.0 uM): 0.2 nM
- Peak Ratio (Table 20, i3 loop, conc 1.0 uM): 0.2

Compound: 103: CXCR4 i3 loop compound (IIISKLSHSKGHQKRKALKT) [Compound 103]
- AUC (% of vehicle) (Table 20, i3 loop, conc 1.0 uM): 26.32 % of vehicle
- Max (% of vehicle) (Table 20, i3 loop, conc 1.0 uM): 24.45 % of vehicle

Compound: CCCCCCCCCCCCCCCCC(NC(=O)CCCCCCCCCCCCC)C(=O)N[C@@H](CCSC)C(=O)NCC(=O)N[C@@H](Cc1ccc(O)cc1)C(=O)N[C@@H](CCC(N)=O)C(=O)N[C@@H](CCCCN)C(=O)N[C@@H](CCCCN)C(=O)N[C@@H](CC(C)C)C(=O)N[C@@H](CCCNC(=N)N)C(=O)N[C@@H](CO)C(=O)N[C@@H](CCSC)C(=O)N[C@H](C(=O)N[C@@H](CC(=O)O)C(=O)N[C@@H](CCCCN)C(=O)N[C@@H](Cc1ccc(O)cc1)C(=O)N[C@@H](CCCNC(=N)N)C(=O)N[C@H](C(N)=O)[C@@H](C)CC)[C@@H](C)O (stereo partly drawn) [Compound 48] (Myristoyl-[ξGly(nC16H33)]MGYQKKLRSMTDKYRI-NH2)
- activity at 1 µM [5]: 53%
- activity at 1 µM [6]: 53.5%

Compound: CCCCCCCCCCCCCCCC(=O)N[C@@H](CCSC)C(=O)NCC(=O)N[C@@H](Cc1ccc(O)cc1)C(=O)N[C@@H](CCC(N)=O)C(=O)N[C@@H](CCCCN)C(=O)N[C@@H](CCCCN)C(=O)N[C@@H](CC(C)C)C(=O)N[C@@H](CCCNC(=N)N)C(=O)N[C@@H](CO)C(=O)N[C@@H](CCSC)C(=O)N[C@H](C(=O)N[C@@H](CC(=O)O)C(=O)N[C@@H](CCCCN)C(=O)N[C@@H](Cc1ccc(O)cc1)C(=O)N[C@@H](CCCNC(=N)N)C(=O)N[C@H](C(N)=O)[C@@H](C)CC)[C@@H](C)O [Compound 49] (Palmitoyl-MGYQKKLRSMTDKYRI-NH2)
- activity at 1 µM [5]: 50.9%
- activity at 1 µM [6]: 62.7%

Compound: Pal-KLSHSKGHQKRKALKTTV-amide (Palmitoyl-KLSHSKGHQKRKALKTTV-NH2; SMILES CCCCCCCCCCCCCCCC(=O)N[C@@H](CCCCN)C(=O)N[C@@H](CC(C)C)C(=O)N[C@@H](CO)C(=O)N[C@@H](Cc1c[nH]cn1)C(=O)N[C@@H](CO)C(=O)N[C@@H](CCCCN)C(=O)NCC(=O)N[C@@H](Cc1c[nH]cn1)C(=O)N[C@@H](CCC(N)=O)C(=O)N[C@@H](CCCCN)C(=O)N[C@@H](CCCNC(=N)N)C(=O)N[C@@H](CCCCN)C(=O)N[C@@H](C)C(=O)N[C@@H](CC(C)C)C(=O)N[C@@H](CCCCN)C(=O)N[C@H](C(=O)N[C@H](C(=O)N[C@H](C(N)=O)C(C)C)[C@@H](C)O)[C@@H](C)O) [Compound 90]
- AUC (% of vehicle) [1]: 171.8 % of vehicle
- Max (% of vehicle) [1]: 156.08 % of vehicle
- Peak Test Compound [1]: 0.16 nM
- AUC (% of vehicle) [2]: 217.53 % of vehicle
- Max (% of vehicle) [2]: 202.16 % of vehicle
- Peak Test Compound [2]: 0.16 nM
- AUC (% of vehicle) (Table 20, i3 loop, conc 0.1 uM): 175.95 % of vehicle
- Max (% of vehicle) (Table 20, i3 loop, conc 0.1 uM): 157.79 % of vehicle
- Peak Test Compound (Table 20, i3 loop, conc 0.1 uM): 0.03 nM
- AUC (% of vehicle) (Table 20, i3 loop, conc 0.3 uM): 129.83 % of vehicle
- Max (% of vehicle) (Table 20, i3 loop, conc 0.3 uM): 113.68 % of vehicle
- Peak Test Compound (Table 20, i3 loop, conc 0.3 uM): 0.16 nM
- Max (% of vehicle) (Table 20, i3 loop, conc 1.0 uM): 131.59 % of vehicle and 76.8 % of vehicle
- Peak Test Compound (Table 20, i3 loop, conc 1.0 uM): 0.16 nM
- AUC (% of vehicle) (Table 20, i3 loop, conc 3.0 uM): 152.75 % of vehicle
- Max (% of vehicle) (Table 20, i3 loop, conc 3.0 uM): 114.49 % of vehicle
- Peak Test Compound (Table 20, i3 loop, conc 3.0 uM): 0.16 nM

Compound: 96: CXCR4 i3 loop compound (SHSKGHQKRKALK; also: lipid Pal, place not given here) [Compound 96]
- AUC (% of vehicle) (Table 20, i3 loop, conc 1.0 uM): 34.22 % of vehicle
- Max (% of vehicle) (Table 20, i3 loop, conc 1.0 uM): 63.12 % of vehicle

Compound: CCCCCCCCCCCCCCCCNC(=O)[C@H](CCCCN)NC(=O)[C@H](CC(=O)O)NC(=O)[C@@H](NC(=O)[C@H](CCSC)NC(=O)[C@H](CO)NC(=O)[C@H](CCCNC(=N)N)NC(=O)[C@H](CC(C)C)NC(=O)[C@H](CCCCN)NC(=O)[C@H](CCCCN)NC(=O)[C@H](CCC(N)=O)NC(=O)[C@H](Cc1ccc(O)cc1)NC(=O)CNC(=O)[C@H](CCSC)NC(C)=O)[C@@H](C)O [Compound 59] (Ac-MGYQKKLRSMTDK-NHhexadecyl)
- activity at 1 µM [5]: 51.6%

Compound: 114: CXCR4 i4 domain compound (GAKFKTSAQHALTSVSRGSSLKILSK) [Compound 114]
- AUC (% of vehicle) (Table 21, i4 loop, conc 1.0 uM): 34.22 % of Vehicle
- Max (% of vehicle) (Table 21, i4 loop, conc 1.0 uM): 63.12 % of Vehicle

Compound: 102: CXCR4 i3 loop compound (IIISKLSHSKGHQKRKALKT) [Compound 102]
- AUC (% of vehicle) (Table 20, i3 loop, conc 1.0 uM): 0 % of vehicle
- Max (% of vehicle) (Table 20, i3 loop, conc 1.0 uM): 0.24 % of vehicle

Compound: 110: CXCR4 i4 domain compound (GAKFKTSAQHALTSVSRGSSLKILSKGKRGGHSCFH) [Compound 110]
- AUC (% of vehicle) (Table 21, i4 loop, conc 1.0 uM): 40.98 % of Vehicle
- Max (% of vehicle) (Table 21, i4 loop, conc 1.0 uM): 42.08 % of Vehicle

Source: patent publication US9096646B2, “CXCR4 receptor compounds” (priority 2008, dated 2015)
